Data as given in publication PMC2809820.

T1: Ets-1 (rhEts-1) (human, UniProt P14921 1-441)
T1 sequence: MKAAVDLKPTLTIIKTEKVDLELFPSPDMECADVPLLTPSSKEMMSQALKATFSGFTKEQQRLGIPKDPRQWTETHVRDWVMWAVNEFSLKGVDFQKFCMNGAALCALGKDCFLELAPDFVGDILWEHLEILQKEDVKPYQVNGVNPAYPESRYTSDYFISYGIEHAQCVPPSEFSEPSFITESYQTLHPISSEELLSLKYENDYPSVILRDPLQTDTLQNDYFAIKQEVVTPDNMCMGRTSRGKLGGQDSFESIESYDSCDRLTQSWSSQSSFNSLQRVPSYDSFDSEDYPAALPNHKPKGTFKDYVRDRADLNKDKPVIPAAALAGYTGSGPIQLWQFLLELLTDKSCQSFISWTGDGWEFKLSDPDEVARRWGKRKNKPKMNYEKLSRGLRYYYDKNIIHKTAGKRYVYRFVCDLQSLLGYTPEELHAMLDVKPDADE

B1: SC1_ETS1 (dsDNA)
DNA 1: CGGCCAAGCCGGAAGTGAGTGCC
DNA 2: GGCACTCACTTCCGGCTTGGCCG
B2: RHS5 (dsDNA)
DNA 1: GGTAACACAGGAAGTCAGCAG
DNA 2: CTGCTGACTTCCTGTGTTACC
B3: IL13P (dsDNA)
DNA 1: GTTCGGGGAGGAAGTGGGTAG
DNA 2: CTACCCACTTCCTCCCCGAAC
B4: IL4P.1 (dsDNA)
DNA 1: GATTTCACAGGAACATTTTAC
DNA 2: GTAAAATGTTCCTGTGAAATC
B5: IL4P.2 (dsDNA)
DNA 1: TTTTCTCCTGGAAGAGAGGTG
DNA 2: CACCTCTCTTCCAGGAGAAAA

How the values were obtained:
Ets-1 (rhEts-1) [1] = target: T1, Ets-1 (rhEts-1); assay: EMSA
Ets-1 (rhEts-1) [2] = target: T1, Ets-1 (rhEts-1); assay: competition
Ets-1 (rhEts-1) [3] = target: T1, Ets-1 (rhEts-1); assay: competition; remark: listed apart in the source

Row | Binder | binding result (Ets-1 (rhEts-1) [2]) | binding result (Ets-1 (rhEts-1) [3]) | further results
1 | B1 |  |  | binding result (Ets-1 (rhEts-1) [1]): binds
2 | B2 | binds |  | 
3 | B3 | binds |  | 
4 | B4 |  | no binding | 
5 | B5 |  | no binding | 
